Measurements: PMC11594316, “Novel DNA Aptamers to Dickkopf-1 Protein and Their Application in Colorimetric Sandwich Assays for Target Detection in Patients with Axial Spondyloarthritis”

T1: Dickkopf-1 (DKK-1) (human, UniProt O94907 32-266)
T1 sequence: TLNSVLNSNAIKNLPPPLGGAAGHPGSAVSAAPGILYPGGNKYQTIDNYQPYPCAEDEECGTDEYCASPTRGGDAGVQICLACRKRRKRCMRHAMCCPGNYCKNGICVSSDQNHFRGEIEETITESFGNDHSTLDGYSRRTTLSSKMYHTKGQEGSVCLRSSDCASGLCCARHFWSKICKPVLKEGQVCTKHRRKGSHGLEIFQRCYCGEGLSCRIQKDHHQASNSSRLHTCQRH

B1: DK2_58t (ssDNA)
DNA: CGACTCGGTGTACCCGCATAGACCCTGCGTCCGCTGTATGTACACGTAAGCCCTGTCG
modifications: 3'-amino linker (C6, Spacer 18)

Biological target: T1, Dickkopf-1 (DKK-1)
Assay: ELASA; ELASA: DKK-1 coated at 2 ug/mL, BSA-blocked; aptamer 3.12-100 nM in PBSMT (1x PBS pH 7.4, 5 mM MgCl2, 0.05% Tween 20), 1 h, 25 C
Conditions: protein: commercial, tags: N-terminal His-tag (stated for the selection protein), label: biotin

Binder	Kd (three-way junction) [nM]	Kd (stem-loop) [nM]
CACGACTCGGAGTGCGTACAGCAAGCACATATGTGCTCTCCCAGAGCGTG (ssDNA, 3'-amino linker (C6, Spacer 18)) [DK4_50t]	6.1 ± 2	–
CCTCGGAGTGCGTACAGCAAGCACATATGTGCTCTCCCAGG (ssDNA, 3'-amino linker (C6, Spacer 18)) [DK4_41t]	5.6 ± 3	–
B1	3.6 ± 2	–
CGGTGTACCCGCATAGACCCTGCGTCCGCTGTATGTACACGTAAGCCG (ssDNA, 3'-amino linker (C6, Spacer 18)) [DK2_48t]	3.3 ± 2	–
CGGCATGTATCTGGCTGCTGAGTGTACGATTCCAGTATATATGAGCCG (ssDNA, 3'-amino linker (C6, Spacer 18)) [DK1_48t]	–	10 ± 6
